From publication PMC6086839, “Elongator mutation in mice induces neurodegeneration and ataxia-like behavior” (Nature Communications, 2018)

T1: yeast Elp4 residues 66-426 (yElp4_(66-426)) (S. cerevisiae, UniProt Q02884 66-426)
T1 construct: source: purified complex
T1 sequence (looked up): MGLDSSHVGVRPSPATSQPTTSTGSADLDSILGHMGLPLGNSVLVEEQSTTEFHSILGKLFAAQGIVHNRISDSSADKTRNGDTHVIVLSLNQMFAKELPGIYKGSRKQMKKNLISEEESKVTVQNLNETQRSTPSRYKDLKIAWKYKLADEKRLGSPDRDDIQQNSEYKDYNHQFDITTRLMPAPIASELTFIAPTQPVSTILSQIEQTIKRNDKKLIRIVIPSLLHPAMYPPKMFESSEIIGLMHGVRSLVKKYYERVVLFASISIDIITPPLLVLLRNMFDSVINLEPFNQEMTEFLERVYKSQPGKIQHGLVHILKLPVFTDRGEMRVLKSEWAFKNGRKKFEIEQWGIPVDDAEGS

B1: yeast Elp5 residues 1-270 (yElp5_(1-270)) (domain or fragment, S. cerevisiae, UniProt P38874 1-270, looked up)
chain: MASSSHNPVILLKRILSLTESSPFILCLDSIAQTSYKLIQEFVHQSKSKGNEYPIVYISFETVNKPSYCTQFIDATQMDFVHLVKQIISYLPAATATQAKKHMVIIDSLNYISTEYITRFLSEIASPHCTMVATYHKDIKDENRTVIPDWNNNYPDKLTLLQFMATTIVDIDVVLTGTLDTEEVSELLNEFRIPRGLNNDIFQLRLVNKRKSGRSLEYDFIVNSNTHEYELLSTTKQEEESSSNGLETPEMLQGLTTFNLGTSNKQKLAK
notes: Elp5, yeast, residues 1-270; source: purified complex
B2: yeast Elongator complex subunit 6 (yElp6) (natural protein, S. cerevisiae)
chain: MGSVQRQDLVLFSDQSVLPAHFFQDSNSHNLFFITHQSCTQPLWMINALVETHVLGSPSSLNESSSSMLPSSTRSHAVLASFIHEQNYFTNSLNKLKIPSNNYNVLDFLSDFIVNNIHNKPRDKILSDVLAKFSAAIQNNPTDTIVIIEQPELLLSLVSGLTCSELNNKFITPLLRQCKVLIIVSNSDIFNIDEYDASVHSSNLQNFYKSSFIKSMINLNLNPLKTGFAKDVTGSLHVCRGGAPIATSNTSLHVVENEYLYLNEKESTKLFYR
notes: Elp6, S. cerevisiae, Q04868; printed without limits (yElp456); source: purified Elp456 complex from yeast subunits

What was measured:
[1] = target: T1, yeast Elp4 residues 66-426 …; assay: co-purification (NiNTA affinity, then SEC); subunits co-expressed in E. coli; truncated complexes purified as complexes and then used for Thermofluor; settings: both partners purified
[2] = target: B2; assay: as above; settings: both partners purified

Binder	binding result [1]	binding result [2]
B1	binds	binds
B2	binds	
